Residue numbers refer to the chain shown, from its start. Values belong to the binder of their own block, whether it stands above or below them.
Target: human VISTA (V-domain Ig Suppressor of T cell Activation) (human) (UniProt Q9H7M9)
Assay: Table 1 column 'Kd, M'; method not stated

Kd: 0.83 nM
B1: VSTB63 (antibody, from a related filing, V domains shown)
VH: QVQLQESGPGLVKPSETLSLTCAVSGFSITSDFAWNWIRQPPGKGLEWIGYITYSGFTNYNPSLESRVTISVDTSKNQFSLKLSSVTAADTAVYYCARQEYGNYVWYFDVWGQGTLVTVSS
VL: DIVMTQTPLSLSVTPGQPASISCRASESVEYYGTSLLQWYLQKPGQPPQLLIYAASNVESGVPDRFSGSGSGTDFTLKISRVEAEDVGVYYCQQSRKVPWTFGQGTKLEIK

Kd: 0.0253 nM
B2: VSTB54 (antibody, from a related filing, V domains shown)
VH: QVQLVQSGAEVKKPGASVKVSCKASGYNIKDTYMHWVRQAPGQGLEWMGRIDPTHGYVIYDPKFQGRVTMTRDTSTSTVYMELSSLRSEDTAVYYCARDRFDPYWFLDVWGQGTLVTVSS
VL: B1 VL with L37M, P47S, A54D, S56F

From US20190330349A1
